No end group written: not given here.
Legend:
[1] = target: T1, recombinant murine LRP::FLAG expressed in BHK cells transfected with SFV1-moLRP::FLAG (murine, UniProt P14206 2-295); assay: Western Blot of total extracts of transfected BHK cells
T1 construct: whole, on cells; also called muLRP-FLAG; murine 37 kDa LRP::FLAG
Method: (§1) BHK cells were either not transfected (n.t.) or transfected in the manner known to the person skilled in the art in the specialty with the rec. Semliki forest virus (SFV) RNAs SFV1-huLRP-FLAG or SFV1-mol.RP::FLAG. The method of preparation of rec. SFV RNA, the transfection and the analysis by Western Blotting or immunofluorescence (FIG. 12) or FACS (FIG. 13) have already been described (Gauczynski et al., 2002; Gauczynski et al., 2001b). 24 h post-transfection, total cell extracts were analyzed by Western Blotting. […] The control used was the anti-LRP antibody mLRP43512 (A), and an anti-mouse IgG-HRP-coupled secondary antibody. As a loading control, the β-actin level was determined. To this end, an anti-β-actin antibody (Chemicon) was employed. Detection was carried out by chemiluminescence (Western Lightning, NEN). […] LRP::FLAG.

[2] = target: T2, recombinant human LRP::FLAG expressed in BHK cells transfected with SFV1-huLRP-FLAG (human, UniProt P08865 2-295); assay: as above
T2 construct: whole, on cells; also called human 37 kDa LRP::FLAG; rec; LRP::FLAG
Method: as §1

[3] = target: T3, 37 kDa/67 kDa LRP/LR on murine neuroblastoma cells (N2a) (murine, UniProt P14206 2-295); assay: FACS on N2a cells
T3 construct: whole, on cells; also called LRP/LR on the surface of N2a cells

[4] = target: T4, LRP peptide VTKEEFQGEWTAPAP (also: synthesized on a cellulose membrane); assay: peptide array on cellulose membrane, scFv 1:5000
T4 peptide: VTKEEFQGEWTAPAP
Method: (§2) The N-terminus of each peptide was displaced by 3 amino acids in relation to the previous peptide, so that each peptide overlapped with the previous peptide by 12 amino acids. The synthesis of the peptides was carried out on a cellulose membrane.

[5] = target: T5, LRP peptide EKAVTKEEFQGEWTA (also: synthesized on a cellulose membrane); assay: peptide array on cellulose membrane, scFv 1:5000
T5 peptide: EKAVTKEEFQGEWTA
Method: as §2

[6] = target: T6, LRP peptide TEDWSAAPTAQATEW (synthesized on a cellulose membrane); assay: peptide array on cellulose membrane, scFv 1:5000
T6 peptide: TEDWSAAPTAQATEW
Method: as §2

[7] = target: T7, LRP peptide PSVPIQQFPTEDWSA (synthesized on a cellulose membrane); assay: peptide array on cellulose membrane, scFv 1:5000
T7 peptide: PSVPIQQFPTEDWSA
Method: as §2

Measured: binding result

B1: single chain antibody S18 selected from the synthetic scFv bank (scFv)
scFv: QVQLQESGGGLVQPGGSLRLSCAASGFMFSRYAMSWVRQAPGKGPEWVSGISGSGGSTYYADSVKGRFTVSRDNSKNTLYLQMNSLRAEDTAVYYCARHPGFWHFDYWGQGTLVTVSSGSASAPKLEEGEFSEARVSELTQDPAVSVALGQTVRITCQGDSLRNFYASWYQQKPGQAPTLVIYGLSKRPSGIPDRFSASSSGNTASLTITGAQAEDEADYYCNSRDRSGNHVNVLFGGGTKLTVLRQPKAAPSVTLFPPSSAAAGSHHHHHH
notes: VH and VL joined by a peptide linker (YOL), with a C-terminal histidine tag; also called scFv S18; scFvS18
not listed: [6] | [7]
binds: all other assays above

B2: single chain antibody N3 selected from the naive scFv bank (scFv)
scFv: EVQLVESGGGVVQPGRSLRLSCAASGFTFSSYGMHWVRQAPGKGLEWVAVIWYDGSNKYYADSVKGRFTISRDNSKNTLYLQMNSLRAEDTAVYYCATIPRSSFYYGMDVWGQGTTVTVSSGSASAPTLKLEEGEFSEARVQPVLTQPPSASGTPGQRVTISCSGSRSNIGSNTVNWYQQLPGTAPKLLIYGNNQRPSGVPERFSGSKSGTSASLAISGLQSEDEADYYCAAWDDSLTGVLFGGGTKLTVLGQPKAAPSVTLFPPSSAAAGSHHHHHH
notes: VH and VL joined by a peptide linker (YOL), with a C-terminal histidine tag; also called scFv N3; scFvN3
not listed: [4] | [5]
binds: all other assays above

Source: patent publication US20070041977A1 (AFFIMED THERAPEUTICS, published 2007)
